# Numbering of substitutions follows the chain as printed. Read-outs that look alike come from different tables or passages of the source.
# Tests used:
# LTC4 synthase [1] = assay: Enzyme kinetics of purified recombinant wild-type or mutant LTC4 synthase; format: biochemical, human; conditions: purified recombinant enzyme
# Method: (§1) PURIFICATION AND KINETIC ANALYSIS OF SELECTED EXPRESSED PROTEINS: Recombinant LTC4 synthases were purified by S-hexyl GSH agarose affinity chromatography (Lam et al., Eur. J. Biochem., 238:606, 1996). Solubilized microsomes were loaded onto a 2.5-cm×1.5-cm open bed of S-hexyl GSH resin equilibrated with 50 mM HEPES, 1 mM EDTA, 5 mM β-mercaptoethanol, 0.1% Triton X-102, 10% glycerol, pH 7.6 (Buffer A) at 4° C. The column was washed sequentially with 5 volumes each of buffer A/0.3 M NaCl/20 mM GSH/0.1% DOC, buffer A/2.5 mM S-hexyl GSH/2.5 mM S-octyl GSH/0.1% DOC, and buffer A/0.1% DOC; and the enzyme was eluted with 5 fractions of 1 volume each of 15 mM probenecid in buffer A containing 0.1% DOC. The enzyme was purified nearly to homogeneity as determined by the presence in silver stained SDS-PAGE gels of a predominant 18-kDa protein band with a minor 34-kDa band; only the 18-kDa band interacted with anti-LTC4 synthase antibody on immunoblot analysis. After sequential concentration and dilution with a Microsep 10K centrifugal concentrator (Filtron Technology Corp., Northborough, Mass.) to remove probenecid, the protein concentration was estimated by staining a SDS-PAGE gel of the purified enzyme and a standard amount of lysozyme resolved in the same gel with Coomassie blue dye and comparing their intensities.
# (§2) To examine the enzyme kinetics of recombinant wild-type or mutant LTC4 synthase, 3-100 ng portions of purified enzyme were incubated in 200 μl of HEPES buffer, pH 7.6, containing 10 mM MgC'2 with either 20 μM LTA4-ME and various concentration of GSH or with 10 mM GSH and various concentrations of LTA4-ME for 2 min at room temperature. The reactions were terminated by the addition of 3 vol of methanol containing 200 ng PGB2. Samples were then analyzed for LTC4-ME by RP-HPLC.
# LTC4 synthase [2] = assay: Conjugation of LTA4-ME with GSH by solubilized microsomes of COS cells transfected with wild-type or mutant LTC4 synthase; conditions: for Function / Km: COS cell microsome; for conjugation function of transfected COS cell microsomes: compared to wild-type construct
# Method: OF THE EXPRESSED PROTEINS: COS-7 cells were transfected with either wild-type LTC4 synthase cDNA or the mutated LTC4 synthase cDNA by DEAE-dextran transfection (Lam et al., Proc. Natl. Acad. Sci. USA., 91:7663, 1994). Three days after transfection, the cells were harvested by treatment with trypsin and suspended in microsomal buffer (50 mM HEPES buffer pH 7.9 containing 2 mM EDTA and 10 mM β-mercaptoethanol) at a concentration of 5×10^6 cells/ml. The cells were lysed by sonication with a Branson microtip sonicator (Danbury, Conn.) at a setting of 7. Cell lysates were centrifuged at 100,000×g for 60 min at 4° C., and the pellets (microsomes) were resuspended in microsomal buffer and were solubilized by the addition of 0.4% Triton X-102, 0.4% sodium deoxycholate (DOC), and 10% glycerol and stirring at 4° C. for 45 min.
# The function of each mutant enzyme as well as the wild-type enzyme was first screened by the incubation of 1-10 μl of solubilized COS cell microsomes with 10 mM GSH and 20 μM LTA4-ME in 200 μl 50 mM HEPES buffer containing 10 mM MgCl2, pH 7.6. The reactions were carried out at room temperature for 10 min and stopped by the addition of 3 vol methanol containing 200 ng prostaglandin B2 (PGB2) as an internal standard. LTC4-ME levels in the samples were determined with high performance liquid chromatography (HPLC).
# Reverse phase (RP)-HPLC was carried out with a model 126 dual pump system and model 167 scanning UV detector (Beckman Instruments) controlled by an Gateway 2000 P4D66 computer equipped with Beckman System Gold software. Samples were applied to a 5-μm 4.6×250-mm C18 Ultrasphere reverse phase column (Beckman Instruments) equilibrated with a solvent of methanol/acetonitrile/water/acetic acid (10:15:100:0.2, v/v), pH 6.0 (solvent A). Immediately after the sample was injected, the column was eluted at a flow rate of 1 ml/min with a programmed concave gradient (System Cold curve 6) to 20% solvent A and 80% solvent B (pure methanol) over 0.2 min with continuation isocratically for 5.8 min. Beginning at 6 min, solvent B was increased linearly to 100% over 0.2 min and was maintained at this level for 7 min more. The ultraviolet absorbance at 280 nm and the ultraviolet spectra were recorded simultaneously. The retention times for PGB2 and LTC4-ME were 7.4 and 8.9 min, respectively. LTC4-ME was quantitated by calculating the ratio of the peak area to the area of the internal standard PGB2.
# LTC4 synthase [3] = biological target: T1, LTC4 synthase (Homo sapiens, UniProt Q16873); assay: Dose-response assay using MK886: conversion of LTA4-ME to LTC4-ME by lysates of transfected COS-7 cells; format: biochemical
# T1 construct: expressed in transfected cells; host or cells: COS-7 cells (pcDNA3 clone from KG-1 library), cell lysate
# T1 sequence (Q16873 1-150): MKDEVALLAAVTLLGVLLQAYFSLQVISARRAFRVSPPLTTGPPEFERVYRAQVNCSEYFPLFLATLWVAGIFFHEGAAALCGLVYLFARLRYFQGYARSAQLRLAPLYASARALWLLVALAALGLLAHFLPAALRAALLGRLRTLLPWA
# Method: After 2.8 min more, solvent B was increased linearly to 90% over 2 min and was maintained at this level for an additional 10 min. UV absorbance at 280 nm and the UV spectra were recorded simultaneously. The retention times for PGB2 and LTC4-ME were 8.5 and 10.1 min, respectively.
# DOSE-RESPONSE ASSAY USING MK886: Cell lysates of the COS-7 cell transfectant containing SEQ ID NO.:1 were incubated with 20 micromolar LTA4-ME, 20 mM GSH, 5 mM MgCl2 in HEPES buffer (pH 7.6), in the presence of 0-10 micromolar MK886 for 10 minutes at room temperature. Reactions were stopped by addition of 2 volumes of methanol containing 200 ng PGB2. Samples were analyzed by RP-HPLC.
# LTC4 synthase [4] = biological target: T1, LTC4 synthase; conditions: high doses; Lam et al.; cited from earlier work
# [5] = Binding of mutant protein to S-hexyl GSH agarose column; conditions: eluted with probenecid
# Method: as §1
# LTC4 synthase [6] = biological target: T2, LTC4 synthase (Homo sapiens, UniProt Q16873, Y93F); assay: Effect of pH on enzymatic conjugation by wild-type and mutant enzyme; format: biochemical; conditions: microsomal assay, 5-fold more Y93F
# T2 construct: made in house; host or cells: COS-7 cells
# T2 sequence (Q16873 1-150 Y93F): T1 sequence (Q16873 1-150) with Y93F
# Method: The study the effect of pH on enzymatic conjugation by wild-type and mutant enzyme, 1-μl or 5-μl (Y93F) samples of solubilized COS cell microsomes were incubated with 10 μM LTA4-ME and 10 mM GSH in bis-Tris propane buffer containing 10 mM MgCl2 at various pH levels. The reactions were carried out at room temperature for 2 min and were stopped by the addition of 3 vol of methanol and 10 μl of acetic acid. Product generation was quantitated by RP-HPLC as described above.
# LTC4 synthase [7] = biological target: T2, LTC4 synthase; assay: Enzyme kinetics of purified recombinant wild-type or mutant LTC4 synthase; format: biochemical
# Method: as §1, §2
Molecule,Vmax LTC4-ME (LTC4 synthase [1]),Km (LTC4 synthase [1]; read-out: Km GSH) [µM],Km (LTC4 synthase [1]; read-out: Km LTA4-ME) [µM],Function (LTC4 synthase [2]),conjugation function of transfected COS cell microsomes (LTC4 synthase [2]),Km (LTC4 synthase [2]; read-out: Km GSH) [µM],Km (LTC4 synthase [2]; read-out: Km LTA4-ME) [µM],other results
C82V: LTC4 synthase point mutant,37.7 µmol/min/mg,900,6.3,100 % of WT,do not affect conjugation function,2000,10.9,conjugation function of transfected COS cell microsomes (LTC4 synthase [2]; listed as C82 to V82): None of the mutations affected conjugation function
CC(C)c1ccc2c(c1)c(SC(C)(C)C)c(CC(C)(C)C(=O)O)n2Cc1ccc(Cl)cc1 [MK-886],–,–,–,–,–,–,–,"IC50 (LTC4 synthase [3]; 20 μM LTA4-ME, COS cell lysates, read-out: IC50, inhibition of conversion of LTA4-ME to LTC4-ME): < 3 µM; inhibition of enzyme activity (LTC4 synthase [3]; at 10 μM): more than 90%; IC50 (LTC4 synthase [3]; transfected COS cell lysates, read-out: ID50, inhibition of LTC4 synthase activity): ~3 µM; inhibition of LTC4 synthase activity (LTC4 synthase [4]): could also inhibit LTC4 synthase activity when administered at high doses"
R51T: LTC4 synthase point mutant,Inactive,–,–,0 % of WT,do not show conjugation activity,–,–,binding to S-hexyl GSH agarose column [5]: bound to S-hexyl GSH; conjugation function of transfected COS cell microsomes (LTC4 synthase [2]; listed as Arg 51 to threonine): abolished the functional activity
WT: recombinant wild-type human LTC4 synthase (SEQ ID NO.:2),51.3 µmol/min/mg,1400,7.4,100 % of WT,–,500 to 2000,6 to 20,–
R51H,20.0 µmol/min/mg,1500,6.3,100 % of WT,activity was not diminished,3800,6.4,–
Y93F: LTC4 synthase point mutant,1.4 µmol/min/mg,9900,5.4,5 % of WT,associated with a reduction in function,10000,20,"pH optimum of conjugation (LTC4 synthase [6]): A shift in the optimum to a higher pH; reduction in Vmax (LTC4 synthase [7]; isolated recombinant enzyme, versus wild type): greater than 90%; catalytic efficiency relative to wild-type enzyme (LTC4 synthase [7]; purified recombinant enzyme): 1/260"
C[C@H](C#Cc1ccc(Oc2ccc(F)cc2)o1)N(O)C(N)=O [A79175],–,–,–,–,–,–,–,effect on LTC4 synthase activity in COS cell lysates (LTC4 synthase [3]; at a concentration of 10 μM): did not affect LTC4 synthase activity

# Source: patent publication US6576753B1, “DNA encoding human leukotriene C4 synthase” (The Brigham and Women's Hospital, Inc., priority 1994, dated 2003)
